# Results from US20250346657A1 (INTERVET, published 2025).
# B1: human-feline chimeric Fulranumab (antibody)
# heavy: EVQLVESGGGLVQPGGSLRLSCAASGFTLRSYSMNWVRQAPGKGLEWVSYISRSSHTIFYADSVKGRFTISRDNAKNSLYLQMDSLRDEDTAMYYCARVYSSGWHVSDYFDYWGQGILVTVSSASTTAPSVFPLAPSCGTTSGATVALACLVLGYFPEPVTVSWNSGALTSGVHTFPAVLQASGLYSLSSMVTVPSSRWLSDTFTCNVAHPPSNTKVDKTVRKTDHPPGPKPCDCPKCPPPEMLGGPSIFIFPPKPKDTLSISRTPEVTCLVVALGPDDSDVQITWFVDNTQVYTAKTSPREEQFASTYRVVSVLPILHQDWLKGKEFKCKVNSKSLPSPIERTISKAKGQPHEPQVYVLPPAQEELSRNKVSVTCLIKSFHPPDIAVEWEITGQPEPENNYRTTPPQLDSDGTYFVYSKLSVDRSHWQRGNTYTCSVSHEALHSHHTQKSLTQSPGK
# light: AIQLTQSPSSLSASVGDRVTITCRASQGISSALAWYQQKPGKAPKLLIYDASSLESGVPSRFSGSGSGTDFTLTISSLQPEDFATYYCQQFNSYPLTFGGGTKVEIKRSDAQPSVFLFQPSLDELHTGSASIVCILNDFYPKEVNVKWKVDGVVQNKGIQESTTEQNSKDSTYSLSSTLTMSSTEYQSHEKFSCEVTHKSLASTLVKSFNRSECQRE
# notes: Chains from the 'List of heavy and light chains to make human-feline chimeric and felinized antibodies'; also called Ful Chimeric; Ful Chim
# Molecular target: T1, feline NGF (feline, UniProt A0ABI7YSK6 122-241)
# T1 construct: domain: C-terminal portion; also called fNGF; feline beta-NGF
# Assay: ELISA, feline NGF
binder,measurement,value
B1,EC50,0.018 to 0.019 nM
